± gives the half width of the 95% confidence interval.

Series [1] is described as follows: folding stability dG unfold from trypsin proteolysis; higher = more stable. An outline of the steps: (§1)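 Only designs with AlphaFold2 dimer inter-PAE above 15 were retained; each was a mini-protein under 80 residues with no cysteine, in a PA-tagged cDNA display construct. After digestion with trypsin and chymotrypsin and sequencing, K50 was inferred by Bayesian fitting of counts, and unfolding free energy was derived per protease or combined against a sequence-predicted unfolded-state K50 and a shared folded-state K50.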

Series [2] can be described thus: folding stability dG unfold from chymotrypsin proteolysis; higher = more stable. An outline of the steps:
as §1

A short description of series [3]: folding stability dG unfold (combined trypsin and chymotrypsin); higher = more stable. An outline of the steps:
as §1

Consider “SAGDAIADLLKEAGFEIDSVDSIEPTDGSYVIGFKFEFPNGWYMEITIWIDPNNPDKIEIDIKMQPPDESAG [r5_683_TrROS]”, for which the “folding stability dG unfold” value in series [1] was determined as 2.6 ± 0.28 kcal/mol; in series [2], 4.43 ± 0.33 kcal/mol; in series [3], 4.06 ± 0.45 kcal/mol.
As for “SAGDALKDLAPDVEITPSSFPFAFPPSRPVLAASIVAHPDNTITVFLTEVHPDGGARVLVYTLHLSDKSAGG [r19_125_TrMRF]”, the figures for the “folding stability dG unfold” value in series [1], in series [2] and in series [3] were 2.78 ± 0.12 kcal/mol, 3.2 ± 0.051 kcal/mol and 3.05 ± 0.14 kcal/mol, respectively.
“SAGDALKEAAKPGEEVTVRLRLTLTFTTETFTDDDGRERTVETVTVTVELEARVVAVDPETGELVIELRSAG [r5_5_TrROS_Hall]”: the “folding stability dG unfold” value in series [1] came out at 2.56 ± 0.12 kcal/mol; in series [2], 4.19 ± 0.14 kcal/mol; in series [3], 3.52 ± 0.18 kcal/mol.
The corresponding values for “SAGDEIEEKVKEILEKLNPDEPVVIKRTKDGRILAENPKTGKFIIFDISPDGTIKIVKVVPAEEAKKLGSAG [r5_852_TrMRF]” are 1.47 ± 0.12 kcal/mol, 2.52 ± 0.071 kcal/mol and 2.18 ± 0.19 kcal/mol.
The corresponding values for “SAGDGITVNPEKVTLTLDITLPDGTVLRVTVTLTPDGVEVTVEPVPVPPLPGATSPEEAEELLKQALASSAG [r5_272_TrMRF]” are 1.99 ± 0.09 kcal/mol, 2.37 ± 0.086 kcal/mol and 2.34 ± 0.083 kcal/mol.
The corresponding values for “SAGDKGRYHFPFTVTMPPGKPPSQIEDALGKYGWDDVDINREPPPNGETKYTINVHMPKEDLPKLLEAFSAG [r5_376_TrROS]” are 0.895 ± 0.039 kcal/mol, 0.933 ± 0.26 kcal/mol and 0.963 ± 0.12 kcal/mol.
Regarding “SAGDKIEIKFNIPMPEGPIRIMVWDNGKREEKDIPPGEEVTIKIDLPPGDDYRIAIYYPDGNMHEFPINSAG [r5_187_TrROS]”, the results for the “folding stability dG unfold” value in series [1], in series [2] and in series [3] were 1.65 ± 0.17 kcal/mol, 3.31 ± 0.14 kcal/mol and 2.47 ± 0.25 kcal/mol, respectively.
On to “SAGDNMYKYDYENPWYGIKIEVWVSPNGQIVSIKVKIEKVPPVPPKPPIDPEDMVPDPDGKYRSPNDLDSAG [r5_685_TrROS]”, for which the “folding stability dG unfold” value was found to be 1.4 ± 0.098 kcal/mol in series [1], 2.26 ± 0.026 kcal/mol in series [2] and 1.95 ± 0.099 kcal/mol in series [3].
For the sequence “SAGDVVEIEITYWVPPDEMTVDEFVDHIMSMLPGVKVKSIEIDEIHPYPDGWYEVTVNYTIEVPPGQEISAG [r5_682_TrROS]”, the “folding stability dG unfold” value came out at 2.53 ± 0.39 kcal/mol in series [1], 2.82 ± 0.12 kcal/mol in series [2] and 2.81 ± 0.16 kcal/mol in series [3].
“SAGDWYIVIKITIYHPNKREREFPIVFDWKDGKIEIAPEFLQNIAEELGLPPNMKIEIEIVEIMPPNDSAGG [r19_287_TrROS]”: the figures for the “folding stability dG unfold” value in series [1], in series [2] and in series [3] were 1.75 ± 0.12 kcal/mol, 3.22 ± 0.099 kcal/mol and 2.43 ± 0.55 kcal/mol, respectively.
On the same counts, the results for “SAGEEIAKRLAEELKEKGYEVEVKVTVEYDEETGEVTITIEIKVKPKPAPPVKIEKKLEGMSEEEKKALSAG [r5_413_TrROS_Hall]” are 0.113 ± 0.12 kcal/mol, 0.137 ± 0.084 kcal/mol and 0.187 ± 0.29 kcal/mol.
The corresponding values for “SAGEEPPEVTIKVVEKDGKLVIEVEYNGKTLTITLEDGEKIEIKFPEGMSEEELLEEAKRLAKELAEKSAGG [r19_170_TrROS_Hall]” are 3.05 ± 0.35 kcal/mol, 1.9 ± 0.25 kcal/mol and 2.63 ± 0.39 kcal/mol.
As to “SAGEIKITVEEVEDGELLVTVEITAESKEEALKALEDLIRELFGEDVEIVSVEFDEETKRIRVTIRIKPSAG [r5_810_TrROS_Hall]”, the entries for the “folding stability dG unfold” value in series [1], in series [2] and in series [3] were 4.25 ± 0.21 kcal/mol, 3.51 ± 0.29 kcal/mol and 4.35 ± 0.35 kcal/mol, respectively.
The corresponding values for “SAGEKEFEIVEVKVNKETNEVYFLVRDKEKNRLIKVHSNGTVEIYDLKDPGKKITINMSLEELLALLKKSAG [r5_491_TrROS_Hall]” are 2.49 ± 0.16 kcal/mol, 4.26 ± 0.19 kcal/mol and 4.08 ± 0.19 kcal/mol.
Turning to “SAGEKIKEALKKAGVEKVEIVEIKRLKNGKVLIVIRLHPDMSEEQRRRLLKALADALREEFPDVKIVELSAG [r5_101_TrROS_Hall]”, the “folding stability dG unfold” value was 4.79 ± 0.13 kcal/mol in series [1], 4.33 ± 0.051 kcal/mol in series [2] and 4.5 ± 0.052 kcal/mol in series [3].
On to “SAGEKKEKEKEKKKEEEEKKKKEEEKKKEEEKKKEKTLKLEFTLPDGSKIEIEMTVEELKKLGLSPEELSAG [r5_12_TrROS_Hall]”, for which the “folding stability dG unfold” value in series [1] turned out to be 0.836 ± 0.14 kcal/mol; in series [2] it was 1.29 ± 0.12 kcal/mol; in series [3], 1.03 ± 0.42 kcal/mol.
The corresponding values for “SAGEKPEKPPEVTITITSVKVERLPDGTVVVEVEAEIEVDGVTLTVRARFVYRDGKLFLEVEVRLEPLPSAG [r5_267_TrROS_Hall]” are 3.5 ± 0.19 kcal/mol, 5.47 ± 0.24 kcal/mol and 4.59 ± 0.95 kcal/mol.
On the same counts, the results for “SAGEKVEITLVVKVEKDEDGRYRLTEEELREIAKALGLDFEVKSVEIERVPGYLVIRVTVDGKEYEFLSAGG [r19_398_TrROS_Hall]” are 2.95 ± 0.089 kcal/mol, 3.04 ± 0.033 kcal/mol and 2.98 ± 0.069 kcal/mol.
The corresponding values for “SAGELAEKLAEELRKLFPNAEVEVEVVEVKEDYVVVKIRLRVVDEETGEEKTVEVELTLVLKPGEILPSAGG [r19_8_TrROS_Hall]” are 3.79 ± 0.14 kcal/mol, 4.66 ± 0.44 kcal/mol and 4.29 ± 0.3 kcal/mol.
Take “SAGEVELEVPIEALKKLPNLEGATVRVTVKLNENGELEITIEVEKAPEPPLTEEEKKKLLEEEEKKKKSAGG [r19_313_TrROS_Hall]”: the “folding stability dG unfold” value in series [1] was -0.203 ± 0.63 kcal/mol; in series [2] it was 1.31 ± 0.31 kcal/mol; in series [3], 1.06 ± 0.48 kcal/mol.
The corresponding values for “SAGEVKPGETVTLTIVLSKEELEKLEELAKALPGVEVTEVKVEKLPDGLVRVTITVTKEALEKLKELLESAG [r5_554_TrROS_Hall]” are 3.28 ± 0.21 kcal/mol, 3.71 ± 0.22 kcal/mol and 3.5 ± 0.19 kcal/mol.
Regarding “SAGEWYRMSITFDLDPDNRDQLEKIAEKIREKDGFDKIEPVEHDPSNGRVTINVYMPPEAQDKIQEALRSAG [r5_193_TrROS]”, the “folding stability dG unfold” value in series [1] came out at 0.941 ± 0.1 kcal/mol; in series [2], 1.25 ± 0.15 kcal/mol; in series [3], 1.27 ± 0.18 kcal/mol.
As for “SAGFGVYKHKYKYDNDDGNPKPKKPEEEPVEPAPPIEPLPIPIRLPDGQPFTFTILSISPKNNNISLNGSAG [r5_735_TrROS]”, the “folding stability dG unfold” value amounted to 0.279 ± 0.22 kcal/mol in series [1], 0.382 ± 0.2 kcal/mol in series [2] and 0.452 ± 0.2 kcal/mol in series [3].
In the case of “SAGFKIDDVETEKDPDGEKEITFRYVDPGDGRPWMLNLRINPNGKLTEENPVPFDDFPPGSYWTIRIKSAGG [r19_393_TrROS]”, the figures for the “folding stability dG unfold” value in series [1], in series [2] and in series [3] were 0.636 ± 0.14 kcal/mol, -0.0517 ± 0.41 kcal/mol and 0.402 ± 0.18 kcal/mol, respectively.
On to “SAGFKIKIEPDKNMPPGQKPMTEEELKKIAKSIAKQMEQDPGNPGKEVKIEIPFYFPDGYWYRIEIEKSAGG [r19_132_TrROS]”, for which the “folding stability dG unfold” value in series [1] was 0.259 ± 0.19 kcal/mol; in series [2], 0.647 ± 0.29 kcal/mol; in series [3], 0.506 ± 0.34 kcal/mol.
The corresponding values for “SAGFQIERKRDPDGKYEVEIKFPHPDGHPMRVKIPINPKEGKIKIDEIESTNPGHKQRMEELARWFLKASAG [r5_266_TrROS]” are -0.4 ± 0.29 kcal/mol, -0.526 ± 0.38 kcal/mol and -0.44 ± 0.16 kcal/mol.
As to “SAGFSVEVTYNPPTGYLEIRFYNPPPNKPLKKETLEEIARKLLEELGIEGEIVEIKEEGNVYTIKVKIPSAG [r14_556_TrMRF]”, the “folding stability dG unfold” value in series [1] amounted to 4.56 ± 0.19 kcal/mol; in series [2] it was 4.65 ± 0.068 kcal/mol; in series [3] it was 4.62 ± 0.084 kcal/mol.
The corresponding values for “SAGFTIEIENEDGKKITFRFPGWKIEIYPKDGIIMMRYPEENMSIMIKVDPNKIKIQVYDGGKWRWFPISAG [r5_786_TrROS]” are 2.86 ± 0.13 kcal/mol, 3.92 ± 0.08 kcal/mol and 3.69 ± 0.47 kcal/mol.
On the same counts, the results for “SAGFWIRIDPKNPRIYISGMPPGMIELIAENAGAPDVTPVKPGRPWWDARDNHPDPDAVIPIPPENMMSAGG [r19_270_TrROS]” are 0.319 ± 0.16 kcal/mol, -0.39 ± 0.39 kcal/mol and 0.0233 ± 0.24 kcal/mol.
Regarding “SAGGAEEIRKELGISPEEKVTVKLVVPEGGRPREFTVEMKPDELEKVLEELGVPPEKLEITEVEVIEESAGG [r13_681_JUSTAS]”, the “folding stability dG unfold” value is -1.39 ± 0.38 kcal/mol in series [1], -0.121 ± 0.21 kcal/mol in series [2] and -0.456 ± 0.21 kcal/mol in series [3].
On the same counts, the results for “SAGGAEELAKALADELRKLFPGEEIEVTVELVEVEVEPGQKVTLPDGSTVEVPPGAKVLVLKITVKPSAGGS [r16_357_TrROS_Hall]” are 3.13 ± 0.16 kcal/mol, 3.56 ± 0.13 kcal/mol and 3.44 ± 0.14 kcal/mol.
The corresponding values for “SAGGAEVDPETKVVHIRIRARSAEELLAAIEALPADEVIIEVYNEETGKTERIRLSREELRKLLEEASAGGS [r16_797_TrROS_Hall]” are 1.92 ± 0.021 kcal/mol, 2.82 ± 0.018 kcal/mol and 2.54 ± 0.031 kcal/mol.
On the same counts, the results for “SAGGAFEMSNEYWFPDGFRVKLKVEVYPNGMFMLDLEIEPIPPPPPIKIEKDPDGEYKYDPNGQPQKDSAGG [r13_151_TrROS]” are 2.58 ± 0.18 kcal/mol, 3.36 ± 0.18 kcal/mol and 2.91 ± 0.38 kcal/mol.
For the sequence “SAGGAFIKDFDVEEDPNGHRKFKFELPNGWKYDITIHPDFPQIEIKPIKPIEPPPIPADDPEQAEEQSAGGS [r16_482_TrROS]”, the “folding stability dG unfold” value in series [1] turned out to be 0.699 ± 0.11 kcal/mol; in series [2], 0.429 ± 0.47 kcal/mol; in series [3] it was 0.552 ± 0.37 kcal/mol.
On the same counts, the results for “SAGGAGPEKAEELARALAAELEEEGREWRFKITYSAEPEILSIDVYPLSEPLVDDAKPGYRTLYYDAPSAGG [r13_693_TrMRF]” are 0.659 ± 0.093 kcal/mol, 1.19 ± 0.29 kcal/mol and 0.957 ± 0.12 kcal/mol.
With “SAGGALDAIKNIAEKFGFPEIEDIDIDPDNGWLSFRFRGPEPVYIKIPWKPDKNGNLPVNIEVYPMDDSAGG [r13_410_TrROS]”, the “folding stability dG unfold” value is 1.48 ± 0.041 kcal/mol in series [1], 1.88 ± 0.11 kcal/mol in series [2] and 1.65 ± 0.13 kcal/mol in series [3].
